Data: IntAct's records for PubMed 25686249

Legend:
pdc6i_human PDCD6IP = pdc6i_human PDCD6IP (UniProt Q8WUM4)
atg12_mouse Atg12 = atg12_mouse Atg12 (UniProt Q9CQY1)
atg12_mouse Atg12, sequence (Q9CQY1 whole entry): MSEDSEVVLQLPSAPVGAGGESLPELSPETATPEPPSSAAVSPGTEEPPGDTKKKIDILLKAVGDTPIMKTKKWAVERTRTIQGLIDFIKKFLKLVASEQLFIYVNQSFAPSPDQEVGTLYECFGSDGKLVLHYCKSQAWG

Ubiquitin-like-conjugating enzyme ATG3 (Mus musculus), Q9CPX6 K243R, sequence (Q9CPX6 whole entry K243R): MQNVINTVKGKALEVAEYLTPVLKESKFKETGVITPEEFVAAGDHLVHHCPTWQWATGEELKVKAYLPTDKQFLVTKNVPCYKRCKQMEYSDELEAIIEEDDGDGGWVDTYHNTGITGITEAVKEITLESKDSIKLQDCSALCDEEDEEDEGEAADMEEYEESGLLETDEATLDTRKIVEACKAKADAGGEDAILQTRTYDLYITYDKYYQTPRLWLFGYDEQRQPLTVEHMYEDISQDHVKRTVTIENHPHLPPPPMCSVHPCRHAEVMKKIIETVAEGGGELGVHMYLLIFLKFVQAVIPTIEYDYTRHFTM
pdc6i_human PDCD6IP, sequence (Q8WUM4 whole entry): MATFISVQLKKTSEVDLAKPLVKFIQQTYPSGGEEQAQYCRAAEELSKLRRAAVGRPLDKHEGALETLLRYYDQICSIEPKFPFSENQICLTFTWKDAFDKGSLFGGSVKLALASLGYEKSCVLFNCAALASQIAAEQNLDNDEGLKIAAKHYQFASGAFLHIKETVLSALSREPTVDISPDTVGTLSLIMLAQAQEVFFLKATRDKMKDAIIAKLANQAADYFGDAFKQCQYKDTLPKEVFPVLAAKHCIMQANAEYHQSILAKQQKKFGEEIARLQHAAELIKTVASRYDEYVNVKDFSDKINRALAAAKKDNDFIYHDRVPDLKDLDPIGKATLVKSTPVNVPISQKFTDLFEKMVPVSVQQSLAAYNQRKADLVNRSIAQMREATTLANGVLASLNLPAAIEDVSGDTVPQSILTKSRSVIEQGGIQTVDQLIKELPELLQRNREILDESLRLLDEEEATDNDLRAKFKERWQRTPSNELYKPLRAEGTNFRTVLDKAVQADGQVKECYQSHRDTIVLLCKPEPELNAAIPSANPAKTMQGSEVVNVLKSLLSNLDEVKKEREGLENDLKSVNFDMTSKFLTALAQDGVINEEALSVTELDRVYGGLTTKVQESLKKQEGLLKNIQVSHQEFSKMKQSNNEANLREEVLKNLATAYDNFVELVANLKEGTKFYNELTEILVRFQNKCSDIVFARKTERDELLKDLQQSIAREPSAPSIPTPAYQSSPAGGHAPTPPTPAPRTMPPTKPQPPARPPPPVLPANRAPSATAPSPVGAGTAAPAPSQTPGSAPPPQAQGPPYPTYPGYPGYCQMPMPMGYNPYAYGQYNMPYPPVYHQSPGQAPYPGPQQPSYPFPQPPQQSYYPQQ

- effect of a mutation on the interaction (pdc6i_human PDCD6IP): disrupting interaction strength
- effect of a mutation on the interaction (atg12_mouse Atg12): disrupting interaction strength
Substance: Ubiquitin-like-conjugating enzyme ATG3 (Mus musculus), Q9CPX6 K243R
